{"source": "patent US20240316011A1", "about": "“ANTI-FIBROSIS PHARMACEUTICAL COMPOSITION AND APPLICATION THEREOF” (West China Second University Hospital, priority 2020, published 2024)", "key": {"TIMP1": {"system": "TIMP1", "conditions": "old mice after PNX, PH, or kidney I/R", "source_text": "Macrophages/monocytes were isolated from indicated mouse tissues via antibody-coated beads isolation after PNX, PH, or Kid I/R. Expression of genes was examined by quantitative PCR."}, "NRP1": {"system": "NRP1", "assay": "HDAC and DNMT inhibitor treatment of old mice: NRP1 protein in isolated ECs (immunoblot)", "type": "in vivo, mouse", "conditions": "old mice after PNX; 10 mg/kg VPA, 0.5 mg/kg AZA", "experimental": "Injection of growth factor and treatment of HDAC and DNMT inhibitors. Three months old (young) mice were subjected to PNX, PH or kidney I/R and injected with 20 μg/kg […] or equal molar amounts of PDGF-BB, HGF, VEGF165, or TGFβ1 every three days. 3-mon Nrp1^+/+, Nrp1^iΔEC/iΔEC, or […] mice were also treated with […]. To test the regulation of […] and NRP1, old mice were treated with 10 mg/kg HDAC inhibitor VPA, 0.5 mg/kg DNMT1 inhibitor azacitidine (AZA), or combinatorial treatment of VPA and AZA (VPA+AZA). Expression of EPCR and NRP1 proteins in isolated lung, liver, and kidney ECs were tested by immunoblot, and […] amounts in homogenized organs was tested by ELISA."}, "[1]": {"system": "Lung and liver fibroblast cells", "assay": "TIMP1 treatment of lung fibroblast and liver stellate cell (immunoblot)", "type": "cell-based, mouse", "experimental": "TIMP1 treatment of lung fibroblast and liver stellate cell. Lung and liver fibroblast cells were from ScienceCell Research Laboratories and cultured as described previously (Reference 8). Lung and liver fibroblast cells were treated with 20 ng/ml TIMP1, 10 ng/ml TGFβ1, or 20 ng/ml TIMP1 and 10 ng/ml TGFβ1. To identify the role of β1 integrin in TIMP1-mediated fibroblast activation, p1 integrin was silenced in fibroblast cells by shRNA. After treatment, lung and liver fibroblast cells were retrieved for analysis of Smad2 phosphorylation and SMA protein expression by immunoblot. Smad2 phosphorylation and SMA protein expression were quantified by densitometry of immunoblot."}, "mouse liver fibrosis": {"system": "mouse liver fibrosis", "assay": "CCl4 liver injury / fibrosis model", "type": "in vivo", "conditions": "Nrp1 iΔEC/iΔEC mice after chronic injury", "experimental": "Animal Care and Mouse lines used.\nMouse liver regeneration and repair models. Mouse liver regeneration was induced by PH.\nTissue fibrosis determination. Lung, liver and kidney fibrotic responses were determined at the indicated time after injury. Tissues were homogenized in tissue lysis buffer. Immunoblot of Collagen I was performed with the obtained tissue lysates. Protein level of Collagen I was compared between different groups. Sirius red and hematoxylin stainings were performed on paraffin-embedded tissue sections to determine the tissue morphology and Collagen deposition and distribution (Reference 8). Sirius red-positive fibrotic parenchyma was determined from five random fields in each section and quantified. Hydroxyproline amount was quantified in the liver and lung to determine the extent of fibrosis."}, "kidney fibrosis": {"system": "kidney fibrosis", "assay": "Folic acid kidney fibrosis model", "type": "in vivo, mouse", "conditions": "Nrp1 iΔEC/iΔEC mice after chronic injury", "experimental": "Animal Care and Mouse lines used. […] This mouse line was crossed with floxed Nrp1 […] mice to generate […] and control mice. […] Mouse kidney regeneration and repair models. Mouse kidney I/R model was adopted from described (Reference 72). After mice were anesthetized, ischemia was induced by the retroperitoneal approach on both kidneys for 30 min. Sham operation was carried out with exposure of kidneys without inducing ischemia. To generate kidney fibrosis, mice were given a single i.p. injection of folic acid at the dose of 250 mg/kg, as previously described (Reference 74). […] At indicated time, serum creatinine concentration was measured by the picric acid method, and tissue morphology and fibrosis were analyzed by Sirius red and hematoxylin co-stainings. Tissue fibrosis determination. Lung, liver and kidney fibrotic responses were determined at the indicated time after injury. Tissues were homogenized in tissue lysis buffer. Immunoblot of Collagen I was performed with the obtained tissue lysates. Protein level of Collagen I was compared between different groups. […] Sirius red-positive fibrotic parenchyma was determined from five random fields in each section and quantified. Hydroxyproline amount was quantified in the liver and lung to determine the extent of fibrosis."}, "EPCR [2]": {"system": "EPCR", "assay": "Growth factor injection after PNX: EPCR / HIF2α in lung ECs", "type": "in vivo, mouse", "experimental": "Mouse lung regeneration and repair models. To test mouse lung alveolar regeneration and repair, models of left lung PNX (Reference 19) and lung injury (Reference 7) were adapted. Mice were anesthetized with a cocktail of ketamine (100 mg/kg) and xylazine (10 mg/kg). PNX was carried out when left lung lobe was resected with a suture tied around the hilum. PCECs were purified from 20 months (designated as old) and 3 months old (designated as young) mice after PNX, and total RNA was isolated and subjected to transcriptome analysis as described. Intratracheal injection of 2 U/kg bleomycin was employed to induce lung injury. To block EPCR signaling, mice were intraperitoneally injected with EPCR neutralizing antibody 1560 at 1.5 mg/kg (Reference 46) after PNX and Bleo injection. Young Nrp1^iΔEC/iΔEC Hif2a^iΔEC/iΔEC, and control mice were also administered with 20 μg/kg mouse P1GF or same molar amounts of HGF and PDGF-BB (Peprotech) after PNX and PH. In addition, repeated intratracheal hydrochloric acid injection models were employed to induce lung injury (Reference 76). Orotracheal instillation was performed in anesthetized mice, and 20 μl of an iso-osmolar solution of 0.1 M hydrochloric acid (pH 1.0) was instilled. […] After recovery, mice were transferred to ventilated cages with access to food and water. […] At the described time points, pulmonary function and oxygen tension in arterial blood of treated mice were measured as previously described (Reference 7). To measure cell proliferation, 100 mg/kg 5-ethynyl-2′-deoxyuridine (EDU) was i.p. injected into mice one hour before sacrificing, and EDU incorporation was measured by EDU cell proliferation kit. Mice were i.p. supplemented with 1 ml PBS after all surgery procedures.\nInjection of growth factor and treatment of HDAC and DNMT inhibitors. Three months old (young) mice were subjected to PNX, PH or kidney I/R and injected with 20 μg/kg P1GF or equal molar amounts of PDGF-BB, HGF, VEGF165, or TGFβ1 every three days. 3-mon Nrp1^+/+, Nrp1^iΔEC/iΔEC, or Hif2a^iΔEC/iΔEC mice were also treated with P1GF. To test the regulation of P1GF and NRP1, old mice were treated with 10 mg/kg HDAC inhibitor VPA, 0.5 mg/kg DNMT1 inhibitor azacitidine (AZA), or combinatorial treatment of VPA and AZA (VPA+AZA). Expression of EPCR and NRP1 proteins in isolated lung, liver, and kidney ECs were tested by immunoblot, and P1GF amounts in homogenized organs was tested by ELISA."}, "EPCR [3]": {"system": "EPCR", "assay": "Growth factor injection after PH: EPCR in liver ECs", "type": "in vivo, mouse", "conditions": "liver lacking endothelial Nrp1 or Hif2a", "experimental": "Mouse lung regeneration and repair models. To test mouse lung alveolar regeneration and repair, models of left lung PNX (Reference 19) and lung injury (Reference 7) were adapted. Mice were anesthetized with a cocktail of ketamine (100 mg/kg) and xylazine (10 mg/kg). PNX was carried out when left lung lobe was resected with a suture tied around the hilum. PCECs were purified from 20 months (designated as old) and 3 months old (designated as young) mice after PNX, and total RNA was isolated and subjected to transcriptome analysis as described. Intratracheal injection of 2 U/kg bleomycin was employed to induce lung injury. To block EPCR signaling, mice were intraperitoneally injected with EPCR neutralizing antibody 1560 at 1.5 mg/kg (Reference 46) after PNX and Bleo injection. Young Nrp1^iΔEC/iΔEC Hif2a^iΔEC/iΔEC, and control mice were also administered with 20 μg/kg mouse P1GF or same molar amounts of HGF and PDGF-BB (Peprotech) after PNX and PH. […] At the described time points, pulmonary function and oxygen tension in arterial blood of treated mice were measured as previously described (Reference 7). To measure cell proliferation, 100 mg/kg 5-ethynyl-2′-deoxyuridine (EDU) was i.p. injected into mice one hour before sacrificing, and EDU incorporation was measured by EDU cell proliferation kit. […]"}, "[4]": {"conditions": "20 ng/ml TIMP1, co-treatment with 10 ng/ml TGF-β1"}}, "data": [{"molecule": "c1cc(CN2CCCNCCNCCCNCC2)ccc1CN1CCCNCCNCCCNCC1", "note": "[AMD3100]", "values": [{"measurement": "TIMP1 upregulation in the macrophages of old organs", "setting": "TIMP1", "value": "attenuated"}]}, {"molecule": "CCCC(CCC)C(=O)O", "note": "[VPA, valproic acid]", "values": [{"measurement": "expression of NRP1 in lung ECs", "setting": "NRP1", "value": "reduced"}]}, {"molecule": "TIMP1: recombinant tissue inhibitor of metalloproteinases 1 incubated with fibroblast cells", "values": [{"measurement": "phosphorylation of Smad2", "setting": "[1]; 20 ng/ml TIMP1", "value": "augmented"}, {"measurement": "smooth muscle cell actin (SMA) protein expression", "setting": "[1]; 20 ng/ml TIMP1", "value": "augmented"}, {"measurement": "phosphorylation of Smad2", "setting": "[1]; [4]", "value": "further enhanced"}, {"measurement": "smooth muscle cell actin (SMA) protein expression", "setting": "[1]; [4]", "value": "further enhanced"}]}, {"molecule": "activated protein C (protein, UniProt P04070 200-461, looked up, Vitamin K-dependent protein C heavy chain activated two-chain form) Vitamin K-dependent protein C …: DTEDQEDQVDPRLIDGKMTRRGDSPWQVVLLDSKKKLACGAVLIHPSWVLTAAHCMDESKKLLVRLGEYDLRRWEKWELDLDIKEVFVHPNYSKSTTDNDIALLHLAQPATLSQTIVPICLPDSGLAERELNQAGQETLVTGWGYHSSREKEAKRNRTFVLNFIKIPVVPHNECSEVMSNMVSENMLCAGILGDRQDACEGDSGGPMVASFHGTWFLVGLVSWGEGCGLLHNYGVYTKVSRYLDWIHGHIRDKEAPQKSWAP", "values": [{"measurement": "EPCR expression in liver ECs", "setting": "mouse liver fibrosis", "value": "enhanced"}, {"measurement": "HIF2A induction in liver ECs", "setting": "mouse liver fibrosis", "value": "suppressed"}, {"measurement": "EPCR expression in kidney ECs", "setting": "kidney fibrosis", "value": "enhanced"}, {"measurement": "HIF2A induction in kidney ECs", "setting": "kidney fibrosis", "value": "suppressed"}]}, {"molecule": "P1GF: placenta growth factor, NRP1 ligand, injected into mice (protein, UniProt P49763 19-221, looked up) Placenta growth factor: LPAVPPQQWALSAGNGSSEVEVVPFQEVWGRSYCRALERLVDVVSEYPSEVEHMFSPSCVSLLRCTGCCGDENLHCVPVETANVTMQLLKIRSGDRPSYVELTFSQHVRCECRHSPGRQSPDMPGDFRADAPSFLPPRRSLPMLFRMEWGCALTGSQSAVWPSSPVPEEIPRMHPGRNGKKQQRKPLREKMKPERCGDAVPRR", "values": [{"measurement": "effect of P1GF on EPCR / HIF2a", "setting": "EPCR [2]; Nrp1 iΔEC/iΔEC mice after PNX", "value": "abrogated"}, {"measurement": "EPCR in lung ECs", "setting": "EPCR [2]; young Hif2a iΔEC/iΔEC mice after PNX", "value": "did not suppress"}, {"measurement": "HIF2a in lung ECs", "setting": "EPCR [2]; young mice after PNX, 20 μg/kg", "value": "enhanced"}, {"measurement": "EPCR expression in lung ECs", "setting": "EPCR [2]; young mice after PNX, 20 μg/kg or equal molar amounts", "value": "suppressed"}, {"measurement": "EPCR upregulation in liver ECs", "setting": "EPCR [3]", "value": "did not prohibit"}]}]}
